How the values were obtained:
Conditions in all cases: 20 nM; 72 h
MCF10A [1] = test: 5+ nucleoli phenotype percent effect (relative to siNT 0% and siKIF11 100%); higher = more cells with five or more nucleoli
Method: (§1)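 After 72 h, cells were fixed and stained with Hoechst and anti-fibrillarin, and nucleoli per nucleus were counted with CellProfiler. Values are plate-adjusted percent effect for the one-nucleolus and 5+ nucleoli phenotypes, normalised to siNT (0%) and to the positive controls siNOL11 or siKIF11 (100%), as the mean of biological triplicates. Percent viability is the nuclei count relative to siNT.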

MCF10A [2] = test: one-nucleolus phenotype percent effect (relative to siNT 0% and siNOL11 100%); higher = more cells with one nucleolus (ribosome biogenesis inhibition)
Method: as §1

MCF10A [3] = test: percent viability (nuclei count relative to siNT); higher = more viable cells
Method: as §1

Sequence	5+ nucleoli phenotype percent effect (MCF10A [1]) [%]	one-nucleolus phenotype percent effect (MCF10A [2]) [%]	percent viability (MCF10A [3]) [%]
AGAGGUAGUAGGUUGCAUAGUU [hsa-let-7d-5p]	30.8	-18.5	28.7
AGAGGUAUAGGGCAUGGGAA [hsa-miR-202-3p]	3.86	10.1	42.3
AGAGGUUAUCCGUGUUAUGUUC [hsa-miR-655-5p]	-32.8	22.9	32.4
AGAGGUUGCCCUUGGUGAAUUC [hsa-miR-377-5p]	-35.2	36.3	22
AGAGUCGGCGACGCCGCCAGC [hsa-miR-4785]	-30.3	25.1	49.5
AGAGUCUUGUGAUGUCUUGC [hsa-miR-924]	-44.9	24.7	42.5
AGAGUUAACUCAAAAUGGACUA [hsa-miR-4424]	6.94	-9.95	51.7
AGAGUUGAGUCUGGACGUCCCG [hsa-miR-219-1-3p]	30.8	-25	88.9
AGAUAUUUUGAGUGUUUGGAAUUG [hsa-miR-3145-3p]	-8.4	-11.7	48.7
AGAUCGACCGUGUUAUAUUCGC [hsa-miR-369-5p]	3.93	-0.708	53
AGAUGUAUGGAAUCUGUAUAUAUC [hsa-miR-3171]	13.6	-12.5	91.9
AGAUGUCCAGCCACAAUUCUCG [hsa-miR-2964a-5p]	-43.9	39.4	30.3
AGAUUGUUUCUUUUGCCGUGCA [hsa-miR-4445-5p]	-21.9	34.7	19.2
AGCAAAAUAAGCAAAUGGAAAA [hsa-miR-1468-3p]	29.6	-19.1	128
AGCAAGGCGGCAUCUCUCUGAU [hsa-miR-4708-3p]	-21.8	16.1	43.7
AGCACACUGAGCGAGCGGAC [hsa-miR-8064]	-14.8	-0.792	44.2
AGCAGAAGCAGGGAGGUUCUCCCA [hsa-miR-298]	-22.8	17.9	25.9
AGCAGACUUGACCUACAAUUA [hsa-miR-4771]	3.81	-9.9	53.6
AGCAGAGGCAGAGAGGCUCAGG [hsa-miR-2467-3p]	-24.4	26.3	4.65
AGCAGCAUUGUACAGGGCUAUCA [hsa-miR-107]	-26.1	29.9	22.7
AGCAGCAUUGUACAGGGCUAUGA [hsa-miR-103a-3p]	-29	15.6	36.3
AGCAGGGCUGGGGAUUGCA [hsa-miR-6132]	-31	57.1	20.5
AGCAGGUGCGGGGCGGCG [hsa-miR-3665]	-20.8	40.6	33
AGCAGUGUUUGUUUUGCCCACA [hsa-miR-6499-3p]	-48	16.7	30.3
AGCAUACACCUGUAGUCCUAGA [hsa-miR-5689]	2.26	0.904	66.7
